According to patent US20160228502A1 (UNIVERSITY OF MARYLAND BALTIMORE, published 2016):
Where no end group is shown, it is not given here.

B1: junctophilin-1 (JPH1), native, rabbit skeletal muscle SR vesicles (other, UniProt Q9GKY8 1-662, looked up)
chain: MTGGRFDFDDGGTYCGGWEEGKAHGHGICTGPKGQGEYSGSWSHGFEVVGGYTWPSGNTYQGYWAQGKRHGLGVETKGKWMYRGEWSHGFKGRYGVRQSLCTPARYEGTWSNGLQDGYGVETYGDGGTYQGQWAGGMRHGYGVRQSVPYGMATVIRSPLRTSLASLRSEQSNGSVLHDAAAAADTPTGTRGGFVLNFHADAELAGKKKGGLFRRGSLLGSMKLRKSESKSSISSKRSSVRSDAAMSRISSSDANSTISFGDVDCDFCPVEDHVDATTTETYMGEWKNDKRNGFGISERSNGMKYEGEWANNKRHGYGCTVFPDGSKEEGKYKNNILVRGIRKQLIPIRNTKTREKVDRAIEGAQRAAAMARTKVEIANSRTAHARAKADAADQAALAARQECDIARAVARELSPDFYQPGPDYIKQRLQEGVDAKENPEEKVPAKPPTPKESPHFYRKGTTPPGSPEASPKYSRSPQPSPPKPAKKQNPSSGARLNQDKRGVAEEQVTAIVNKPLTSKAPTKEVGAAVSQSKYSGRHHVPNPSNGELHSQYHGYYVKLHAPQHPPVDAEDDDRSSPSSSALVHKPSPNKWSPPKSVTKPVAKESKAEPKAKKSELAIPKNPASNDSCPSMEREANSGPNSVMIVLVMLLNIGLAILFVHFLT
B2: sarco(endo)plasmic reticulum Ca^2+-ATPase 1 (SERCA1) (enzyme)
chain: MEAAHSKSTEECLAYFGVSETTGLTPDQVKRHLEKYGHNELPAEEGKSLWELVIEQFEDLLVRILLLAACISFVLAWFEEGEETITAFVEPFVILLILIANAIVGVWQERNAENAIEALKEYEPEMGKVYRADRKSVQRIKARDIVPGDIVEVAVGDKVPADIRILSIKSTTLRVDQSILTGESVSVIKHTEPVPDPRAVNQDKKNMLFSGTNIAAGKALGIVATTGVSTEIGKIRDQMAATEQDKTPLQQKLDEFGEQLSKVISLICVAVWLINIGHFNDPVHGGSWIRGAIYYFKIAVALAVAAIPEGLPAVITTCLALGTRRMAKKNAIVRSLPSVETLGCTSVICSDKTGTLTTNQMSVCKMFIIDKVDGDFCSLNEFSITGSTYAPEGEVLKNDKPIRSGQFDGLVELATICALCNDSSLDFNETKGVYEKVGEATETALTTLVEKMNVFNTEVRNLSKVERANACNSVIRQLMKKEFTLEFSRDRKSMSVYCSPAKSSRAAVGNKMFVKGAPEGVIDRCNYVRVGTTRVPMTGPVKEKILSVIKEWGTGRDTLRCLALATRDTPPKREEMVLDDSSRFMEYETDLTFVGVVGMLDPPRKEVMGSIQLCRDAGIRVIMITGDNKGTAIAICRRIGIFGENEEVADRAYTGREFDDLPLAEQREACRRACCFARVEPSHKSKIVEYLQSYDEITAMTGDGVNDAPALKKAEIGIAMGSGTAVAKTASEMVLADDNFSTIVAAVEEGRAIYNNMKQFIRYLISSNVGEVVCIFLTAALGLPEALIPVQLLWVNLVTDGLPATALGFNPPDLDIMDRPPRSPKEPLISGWLFFRYMAIGGYVGAATVGAAAWWFMYAEDGPGVTYHQLTHFMQCTEDHPHFEGLDCEIFEAPEPMTMALSVLVTIEMCNALNSLSENQSLMRMPPWVNIWLLGSICLSMSLHFLILYVDPLPMIFKLKALDLTQWLMVLKISLPVIGLDEILKFIARNYLEDPEDERRK
notes: One entry covers native rabbit SERCA1 (SR vesicles) and untagged recombinant rabbit SERCA1 (COS7/HEK293 extracts and microsomes); The assay field of each row says which source was used; also called SERCA1-pcDNA3.1

Columns and labels:
[1] = target: B2; assay: coIP with antibodies to JPH1 from rabbit SR vesicles
Protocol: CoIP experiments were performed as described in (60), with preparations of SR vesicles isolated by the method of Eletr and Inesi (61, 62) from rabbit skeletal muscle from the back and hind limb (Pel-Freez, Rogers, Ark.), or from crude membrane extracts of COS7 cells prepared as described (59, 63). For the latter, COS7 cells were harvested in PBS at 48 h following transfection, collected by centrifugation, frozen in liquid N₂ and stored at −80° C. until needed. Briefly, pellets were homogenized with 30 strokes of a glass Dounce homogenizer in resuspension buffer (0.25 M sucrose, 10 mM Tris-HCl, pH 7.5, 20 mM CaCl₂, 3 mM 2-mercaptoethanol, 150 mM KCl), and solubilized with an equal volume of lysis buffer (40 mM HEPES-NaOH, pH 7.5, 300 mM NaCl, 2 mM EDTA, 1% Tween 20). SR vesicles were prepared for coIP by the same methods for resuspension and solubilization. The muscle and cell extracts were pre-cleared with 50 μL uncoated Dynabeads. The pre-cleared extracts were mixed with antibody-coated Dynabeads (5 ug antibody/50 uL beads) and incubated at 4° C. for 4 h. […] Proteins in the samples were separated by SDS-PAGE and analyzed via immunoblot as described (64).
The interaction between SERCA1 and sAnk1 was first analyzed by co-immunoprecipitation (coIP), performed with SR vesicles prepared from rabbit skeletal muscle (see Methods). […]

[2] = target: B2; assay: cell-based or functional assay
[3] = target: Maltose Binding Protein (MBP) alone (UniProt P0AEX9 27-392 = MBP); assay: blot overlay on rabbit SR vesicle proteins
Protocol: A FLAG empty vector was used as controls. […] 7B. Amylose resin bound to bacterially expressed sAnk1₂₉₋₁₅₅-MBP fusion protein was incubated with COS7 extracts transfected to express SERCA1. MBP protein alone was used as a control. […] Ponceau staining was used as a loading control (top panel). 7C. SR vesicle preparations were used for blot overlay assays. Blots were first overlaid with sAnk1₂₉₋₁₅₅-MBP or MBP protein alone, followed by incubation with antibodies to MBP. […] Ponceau staining was used as a loading control (right panel).
The blot overlay assay was performed as described (50, 69) with minor modifications. […] The generation and purification of these fusion proteins were as described (51). A separate section of the membrane was reserved to identify SERCA1. Blots were washed extensively with overlay buffer and once with TBS, pH 7.4, plus 0.5% Tween-20 (TBST). The blots were blocked in TBST+4% non-fat dry milk for 4 h at 25° C. and probed with antibodies to MBP (overlay portion) and SERCA1 (non-overlay portion). Immunoblots were completed as described above.

B1
binding result [1]: no binding

{FLAG tag}-MERSTRELCLNFTVVLITVILIWLLVRSYQY (other, rabbit, UniProt P42532 1-31, looked up, not shown: small tags and cut ends, not fully specified) [N-terminal FLAG-tagged sarcolipin (NF-SLN)]
ΔKCa2+ relative to SERCA1 Alone [2]: -0.37 pCa^2+ units

B2
binding result [3]: no binding (tested: 3 µg/mL)
